Target: IGF-1R 단백질 (Sino biological Inc. 10164H08H) (UniProt P08069 31-932)
Assay: ELISA, coated IGF-1R (50 ng/well), anti-human Fc-HRP

Sequence of IGF-1R 단백질 (Sino biological Inc. 10164H08H) (P08069 31-932 limits assumed): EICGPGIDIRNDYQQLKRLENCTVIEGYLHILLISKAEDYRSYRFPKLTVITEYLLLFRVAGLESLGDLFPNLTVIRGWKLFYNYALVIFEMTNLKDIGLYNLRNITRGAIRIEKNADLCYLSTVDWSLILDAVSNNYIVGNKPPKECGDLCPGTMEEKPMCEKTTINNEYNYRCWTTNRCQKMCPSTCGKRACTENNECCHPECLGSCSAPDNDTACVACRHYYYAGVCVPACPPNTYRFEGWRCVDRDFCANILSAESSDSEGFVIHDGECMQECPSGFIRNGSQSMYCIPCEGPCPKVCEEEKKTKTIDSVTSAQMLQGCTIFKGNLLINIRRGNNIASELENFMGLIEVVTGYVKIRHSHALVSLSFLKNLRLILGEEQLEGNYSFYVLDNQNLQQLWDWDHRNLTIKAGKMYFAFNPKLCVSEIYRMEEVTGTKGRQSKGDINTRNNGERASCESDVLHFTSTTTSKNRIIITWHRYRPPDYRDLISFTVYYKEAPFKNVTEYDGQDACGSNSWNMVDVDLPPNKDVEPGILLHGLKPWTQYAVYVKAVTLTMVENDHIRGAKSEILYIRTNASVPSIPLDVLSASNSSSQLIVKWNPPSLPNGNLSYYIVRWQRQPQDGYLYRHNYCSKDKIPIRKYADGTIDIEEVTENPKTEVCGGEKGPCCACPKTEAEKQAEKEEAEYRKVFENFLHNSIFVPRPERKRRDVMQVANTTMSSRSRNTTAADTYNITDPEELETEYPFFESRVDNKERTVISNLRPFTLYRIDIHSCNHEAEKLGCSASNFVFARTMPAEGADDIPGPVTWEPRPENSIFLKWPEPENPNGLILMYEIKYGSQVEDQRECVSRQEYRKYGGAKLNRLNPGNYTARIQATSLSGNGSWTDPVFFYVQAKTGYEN

- EC50: 0.148 nM
B1: MKJP2 인간 단일클론항체 (antibody, human IgG1, lambda, V domains shown)
VH: EVQLLESGGGLAQPGGSLRLSCAASGFTFSGYAMSWVRQAPGKGLEWVSAISSDGGSTYYADSVKGRFTISRDNSKNTLYLQMNSLRAEDTAVYYCARDPWFSRWTAFDYWGQGTLVTVSS
VL: QSVLTQPPSASGTPGQRVTISCSGSSSNIGNNAVNWYQQLPGTAPKLLIYSNSKRPSGVPDRFSGSKSGTSASLAISGLRSEDEADYYCGTWDYSLSGYVFGGGTKLTVLG
notes: Human anti-IGF-1R antibody without IL2, used as the control in the ELISA; also called 1229 클론
